± gives the uncertainty stated by the source.

From the supplement of paper PMC12042874 come the findings set out here.

A short description of this data set: amyloid nucleation score (Sup35N fusion, yeast selection) (log enrichment); library NNK1; higher = more nucleation; inactive = no reads after selection. Put shortly: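 Random libraries were run with three technical output replicates. In each, psi-negative yeast expressing Sup35N fused to peptides of 20 random codons were induced 24 hours with 100 μM copper sulfate and grown 7 days at 30°C on medium lacking adenine and uracil, and input and output plasmid inserts were Illumina-sequenced. The nucleation score is the DiMSum log enrichment of output over input reads, centred on the mode score of non-aggregating sequences, and sequences under 100 input reads were excluded.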
In turn, CSSRVRMTRQLVKLVNICMR returned an amyloid nucleation score of -0.122 ± 0.97. For the substance CSVRAVGILRWAFFGEHPLN, the amyloid nucleation score was -0.422 ± 0.41. The figure for CSYLSLRRKCVDTQFLYDMM is -0.199 ± 0.47; for CTEKMIFTDLHRLRVVYKYT it is -0.59 ± 1.6; for CTLVDHYWGCEGRSCARCSS it is 0.233 ± 0.55. On to CTREVLWGCHCNSSASNLFS, for which the amyloid nucleation score was -0.202 ± 0.61. The substance CTRVTSRAM yielded an amyloid nucleation score of -0.757 ± 0.9. For the substance CTVRFIYRKLN, the amyloid nucleation score was -0.325 ± 0.33.

As to CVDRNG, the amyloid nucleation score was -0.362 ± 0.39. CVGGWWKTRHMSIWNWIWWL gave an amyloid nucleation score of 0.197 ± 0.9. Take CVIQVVLYLV: the amyloid nucleation score came out at 3.83 ± 0.059.

CVMFLGFVYVFSSLYPT gave an amyloid nucleation score of -0.981 ± 0.63. As for CVNIRNQKQLSFAGLVDLSV, the amyloid nucleation score turned out to be 0.358 ± 0.59. With CVTAVIRDGWGWNYCCRDHR, the amyloid nucleation score entry is “inactive”. The substance CVTDIRAWFKVGLCNSDVLQ showed an amyloid nucleation score of 3.89 ± 0.096. CWDLTTVCHNFNRYHSWVSR displayed an amyloid nucleation score of 0.431 ± 1.1. Consider CWDSNALADGCAWYKVLMDI, for which the amyloid nucleation score is 0.229 ± 0.35. CWMHFPYQVESDGQTNRAFD had an amyloid nucleation score of 0.041 ± 0.34. CWRLSYGLGVTFNKMLWPWK registered an amyloid nucleation score of 0.43 ± 0.56.

For the substance CWVYDGRIYPHL, the amyloid nucleation score was 1.05 ± 0.85. CYKAAQGFIFSRK had an amyloid nucleation score of 0.482 ± 0.32.

As to CYNTRVPFGMPLKRTPYRSR, the amyloid nucleation score is -0.509 ± 1.1. Substance DAEWF displayed an amyloid nucleation score of 0.393 ± 0.27. DAIHVWCICRKSLVFILRNS displayed an amyloid nucleation score of 0.086 ± 1. To DAWGTVRYSIGFKGVVAMTS belongs 0.149 ± 0.29; to DAYMMLFLYSPVWECFLMKG, -0.084 ± 0.28; to DCKLGISGIDLVNRFLYPCM, 1.33 ± 0.84. Consider DCLRILDGQYRRRIDRALRV, for which the amyloid nucleation score is 0.09 ± 0.7.

As for DCLSSGFLDTLYVVQVRGSD, the amyloid nucleation score result was “inactive”. As to DCRMFDFLA, the amyloid nucleation score is -0.444 ± 0.38. In turn, DDKIVRIEDSMAASNIAFLA showed an amyloid nucleation score of 0.371 ± 0.32.

Substance DDLLH displayed an amyloid nucleation score of 0.387 ± 0.79. Regarding DEDHFYTSRML, the amyloid nucleation score was determined as 0.639 ± 1.1. DFAFYTVTLCFE came in with an amyloid nucleation score of 0.809 ± 0.35.

For DFCVPHGNCFLA, the amyloid nucleation score is -0.747 ± 0.48. On to DFGRFTGSG, for which the amyloid nucleation score is -0.824 ± 2.1. DFHDLSNLVTGGLLITHIL displayed an amyloid nucleation score of 1.01 ± 0.58. DFHTITGMANFTLSLCYSHK: the amyloid nucleation score is -0.945 ± 1.4. On to DFNSISDAKNCWSYLM, for which the amyloid nucleation score worked out at 1.25 ± 0.13. In turn, DFSLSSPRFLFGDGCRNCNA returned an amyloid nucleation score of -0.028 ± 0.36.

Substance DFVLIFLRICSCPSHTNFYL displayed an amyloid nucleation score of 3.45 ± 0.12. For DGARDFRLRMLACSRLSRGI, the amyloid nucleation score turned out to be 0.053 ± 0.72. On to DGCDGCLTYAKCGYLGFY, for which the amyloid nucleation score was determined as 0.424 ± 0.67.

DGCIKLWGF came in with an amyloid nucleation score of 0.779 ± 0.67. For DGCSRFRREGAEVYQRMGIG, the amyloid nucleation score was 1.04 ± 0.85. The figure for DGGAFAGRS is -1.06 ± 0.81; for DGRRLNLIWLYRIFWN it is -0.767 ± 0.37. For DGSVFFKADRVPLRSSNGGI, the amyloid nucleation score came out at 1.2 ± 0.52. As for DGSVYTPVIVY, the amyloid nucleation score came out at 0.207 ± 0.29. As to DGTNSVRIASWLNIDEGAL, the amyloid nucleation score is -0.225 ± 0.42.

Consider DHITKHFIGV, for which the amyloid nucleation score result is “inactive”. With DHSCWGAWWVHFGAHDGGWC, the amyloid nucleation score was determined as 1.25 ± 0.79. Substance DIALMWLLLVHRDYT returned an amyloid nucleation score of -1.07 ± 0.76. In the case of DICVWDYMNRGGQLL, the amyloid nucleation score is -0.047 ± 0.86. Turning to DIRCGLDGNWVSSFVRQQGS, the amyloid nucleation score result was “inactive”.

For the substance DIRMVDWVRNRVQHVADGK, the amyloid nucleation score is -0.892 ± 0.7. Take DIRNLLTWSISDVVTVRKIG: the amyloid nucleation score was -0.643 ± 0.33. As for DISMLRKKSCKHTVNMMSL, the amyloid nucleation score was -0.431 ± 0.27. Substance DIVATYRVRISLNPNVMVTY showed an amyloid nucleation score of 0.466 ± 0.32. Substance DKELSFAKGACSKFSDSFRA registered an amyloid nucleation score of -1.45 ± 1.1. DKRNVASYDSMCQLLAILFN had an amyloid nucleation score of 0.512 ± 0.34. Turning to DLAFRPVLVLQ, the amyloid nucleation score worked out at 0.762 ± 0.65. Regarding DLAHYAW, the amyloid nucleation score amounted to 0.286 ± 0.45. On to DLDKRMVSYDFKICGYKINF, for which the amyloid nucleation score is 3.77 ± 0.1.

Turning to DLMGSWYDLRYMKGLKGK, the amyloid nucleation score is -0.265 ± 0.13.

Consider DLPLGQRYSCAQVGGWSYYE, for which the amyloid nucleation score worked out at 0.556 ± 0.45.

On to DLSNNRWWFNRFRALHYKSS, for which the amyloid nucleation score was -0.358 ± 0.85. The figure for DLSWSGTFSAGHGNMNFTKS is 2.53 ± 0.15.

Substance DLTVWSTIFDSMSTCEHRGG gave an amyloid nucleation score of 0.257 ± 0.42. For the substance DLVSVHHVNRLRCWSGCLCE, the amyloid nucleation score is -0.532 ± 0.51. Regarding DLYEAMSRNLADYRAVWGLS, the amyloid nucleation score entry was “inactive”.

Substance DMDGDSLGVFWALATVYQAH gave an amyloid nucleation score of -0.551 ± 0.36. Substance DMEYGGKRHNNCSDLIITNC displayed an amyloid nucleation score of -0.726 ± 1.1. The substance DMGSHIARSTKMVPICGGSR returned an amyloid nucleation score of -0.259 ± 1.4. As for DMNILVLLMGDVVRLATTEW, the amyloid nucleation score is 2.68 ± 0.17. Substance DMNLRVDLYMKFEWSGLVER returned an amyloid nucleation score of 0.109 ± 0.36. With DMQSEGDRGDHRGSRDCRS, the amyloid nucleation score amounted to 0.983 ± 1.

Consider DNIYIYIPVTYFCATLRMWR, for which the amyloid nucleation score is 5.09 ± 0.071. Regarding DNMSVLYDTTLVFRWIWVEP, the amyloid nucleation score entry is “inactive”. Substance DNSRIYLCGSLNCFYFSDVL registered an amyloid nucleation score of 7.656 ± 0.074.

In the case of DNVFEALAL, the amyloid nucleation score entry was “inactive”. In turn, DNYVMWVLEGLSYVLGNNRI registered an amyloid nucleation score of -0.087 ± 1. As to DPEVIGLIVCNM, the amyloid nucleation score was -1.16 ± 1. As for DREIAMVWHLSYIIFYFSES, the amyloid nucleation score was -0.993 ± 0.33.

DRFSYLEHDSRDRRRVE: the amyloid nucleation score entry is “inactive”. The figure for DRMKTQGFCQTFNFWLGYYI is 6.97 ± 0.075.

Regarding DRMLLMVCIVWNRFVKGFPH, the amyloid nucleation score entry was “inactive”.

As for DRNYVGELTEFTGVMGRGRQ, the amyloid nucleation score is -0.858 ± 1.1. DRPTRLSVIFGRPP: the amyloid nucleation score entry was “inactive”. DRRGRRYKVRRVCMVMESLG returned an amyloid nucleation score of 0.703 ± 0.58. On to DRTLDDPGVHHASKAE, for which the amyloid nucleation score result is “inactive”.

For DRWWILNGTTDLSLGWVLEC, the amyloid nucleation score is 0.648 ± 0.97.

The substance DRYCGYWNGTSSCMICGRVV returned an amyloid nucleation score of 1.1 ± 0.69. As to DSCRWGFLRVRVLGFSSVWY, the amyloid nucleation score was -0.28 ± 0.49.

On to DSEDVVLQCEWWTRLARIEY, for which the amyloid nucleation score was -0.333 ± 0.54. To DSGLSAMGMELRCYEYLVSW belongs 0.886 ± 1.1; to DSLVGVARDSMTSKQHNKNE, -0.112 ± 0.69. Substance DSMKN returned an amyloid nucleation score of 1.39 ± 0.13. DSQMYTMH yielded an amyloid nucleation score of -0.054 ± 0.71. With DSSMWFTASLYSYVLLSLNL, the amyloid nucleation score was found to be 0.73 ± 0.36. DSSRSVFLWTGG registered an amyloid nucleation score of -0.994 ± 1.9.

In the case of DSSYKWWTYFWGA, the amyloid nucleation score was -0.267 ± 0.42.

DSVLNGSFAACLDWDALPGQ: the amyloid nucleation score is 0.272 ± 0.54. As for DSWRSIIGFRERVSTMQYLI, the amyloid nucleation score turned out to be 0.96 ± 0.66. For DSYDTTSNRAPVMLKVNYSM, the amyloid nucleation score was -0.692 ± 0.64. To DTINAGWSHLEARCLRFLHV belongs -0.795 ± 0.38. As for DTKNAWLILSTYLDNLFHIS, the amyloid nucleation score came out at 0.976 ± 0.33. For DTLPRFRSRNSIVRNLSKNG, the amyloid nucleation score result was “inactive”. In turn, DVAARVQKNCPVIIGAIRSK had an amyloid nucleation score of 0.091 ± 1.6.

On to DVEIFTISWVKEVVYRDTWA, for which the amyloid nucleation score was 1.59 ± 0.7. In the case of DVGCLCNNMHMILILLNYRV, the amyloid nucleation score is 0.446 ± 0.44. With DVILCAK, the amyloid nucleation score result is “inactive”.

The substance DVISLTHVEKSWLVSLWKRS had an amyloid nucleation score of -0.045 ± 0.69. DVVLVYGTITGSWVQSVWEG showed an amyloid nucleation score of 0.553 ± 0.69. Turning to DVVSFSKVCVVCGLSWSASY, the amyloid nucleation score came to 6.662 ± 0.06. For DWANSTDFV, the amyloid nucleation score is -0.195 ± 0.18.

The substance DWFWWKIVGWVRNSNMRSYS showed an amyloid nucleation score of 0.946 ± 0.6. On to DWGERRLSRFNGAYSVVTMV, for which the amyloid nucleation score was 0.599 ± 0.6. Consider DWGPTNTFGPYQINNLTCSS, for which the amyloid nucleation score was -1.91 ± 1.9.

Take DWLVRGVFPYVGMLDIALTY: the amyloid nucleation score amounted to 0.356 ± 0.72. Turning to DWNVQGQWFHQC, the amyloid nucleation score is 0.677 ± 0.72. For DWPMELLASYMTPMLVTRV, the amyloid nucleation score result was “inactive”.

Take DWRFSGALRLSLMHTYQ: the amyloid nucleation score turned out to be 4.09 ± 0.072.

In turn, DWSSRVFPGSLGTKAGSHA registered an amyloid nucleation score of -1.58 ± 1.4. DYDRTSFFEDSFVTD returned an amyloid nucleation score of -0.7 ± 1.1.

DYESSVGRSQDLAY gave an amyloid nucleation score of -0.745 ± 2.4. For DYRTCSCF, the amyloid nucleation score result is “inactive”. As to DYTILYVVWILCGIKMSVVI, the amyloid nucleation score turned out to be 0.699 ± 0.66. In turn, DYVHFMCHGLGR yielded an amyloid nucleation score of -0.185 ± 0.63. The substance DYWRHSHVLHSPTKRKNRLV came in with an amyloid nucleation score of 0.223 ± 0.34. For the substance EACETLRLYELCLFKWERFR, the amyloid nucleation score was 0.47 ± 0.58. In turn, EAFRLCGLVRACVAFCG came in with an amyloid nucleation score of 0.116 ± 0.3.

Turning to EAIISNCNFVIQIMCYHYTA, the amyloid nucleation score entry was “inactive”. In turn, ECCWLRVTRLGLWDDVVHSE showed an amyloid nucleation score of -0.163 ± 0.33. In the case of ECDYDYGTSWSQVSYVRGV, the amyloid nucleation score was -0.773 ± 1.2. ECPRVSLASGDVE: the amyloid nucleation score came out at 1.17 ± 0.66. For the substance ECQCFDQICEQLNSYRDQFS, the amyloid nucleation score worked out at 0.105 ± 0.97.
